Patent US20230399384A1 (University of Texas, published 2023)
Read-outs that look alike come from different tables or passages of the source.

B1: CoV2-29 (antibody, V domains shown)
VH: QVQLVESGGGLVQPGGSLRLSCAASGFTFSSYWMSWVRQAPGKGLEWVANIKQDGSEKYYVDSVKGRFTISRDNAKNSLYLQMNSLRAEDTAVYYCARMADDDFWRDLPGFYMDVWGKGTTVTVSS
VL: QAVVTQPASVSGSPGQSITISCTGTSSDVGGYNYVSWYQQHPGKAPKLMIYDVSNRPSGVSNRFSGSKSGNTASLTISGLQAEDEADYYCSSYTSSSTLVFGGGTKVTVL
B2: CoV2-11 (antibody, V domains shown)
VH: QVELVESGGGLVQPGRSLRLSCEASGFSFDNYAMHWVRQTPGKGLEWVSGITGNSGTIGYADSVKGRFTISRDNAKNSLYLQMNRLRAEDTALYYCAKDTDYDSSGSYFDYWGQGTLVTVSS
VL: QPVLTQPPSVAVAPGQTARITCGGKNIGRESVHWYQQKPDQAPVLVIYSDGDRPSGTSERFSGSRSGNAATLTISRVEAGDEADYFCQVWDPDTDHYVFGTGTELTVL
B3: CoV2-01 (antibody, V domains shown)
VH: QVLLVQSGAEMKKPGASVKVSCKTSGYTFTNSYIHWVRQAPGQGLEWMGWINPISGGTNYAQKFQGRVTMTRDTSINTAYMELSRLRSDDTAVYYCARDRGDYDYGWGTSPFYFDYWGQGTLVTVSS
VL: DVQMTQSPSSLSASVGDRVTITCRASQSISRYLNWYQQKPGKAPKLLIYAASSLQSGVPSRFSGSGSGADFTLTISSLQPEDFATYYCQQSFSPPITFGQGTRLEIK
B4: CoV2-18 (antibody, V domains shown)
VH: QVQLVQSGAEVKKPGSSVKVSCKASGGTFSNYGISWVRQAPGQGLEWMGGIIPIFGTANYAQKFQGRVTITADKSTRTAYMELSSLRFEDTAVYYCARDRDDALTGLGLGGGFDIWGQGTMVTVSS
VL: QAVVTQPPSASGTPGQRVTISCSGSTSNIGTNTANWYQHLPGTAPKLLIYGNDRRPSGVPDRFSGSKSVTSASLAISGLQSEDEADYYCAAWDERLNGYVFGTGTKLTVL
B5: CoV2-33 (antibody, V domains shown)
VH: QVQLVESGGGLVQPGRSLRLSCAASRFTFDDHAMHWVRQAPGKGLEWVSGISWNGGIIGYADSVKGRFTISRDNAKNSLYLQMNSLRAEDTALYYCAKGMGFGESNYYAMDVWGQGTMVTVSS
VL: QSALTQPASVSGSPGQSITISCTGTSSDVGGYNYVSWYQQHPGKAPKLIIYDVSNRPSGVSNRFSGSKSGNTASLTISGLQAEDEAYYYCSSYTSISNLVVFGGGTKVTVL
B6: CoV2-17 (antibody, V domains shown)
VH: QVELVESGGGLVKPGGSLRLSCAASGFTFSSYSMNWVRQAPGKGLEWVSSISSSSSYIYYADSVKGRFTISRDNAKNSLYLQMNSLRAEDTAVYYCARGNVDIVATGEVDAFDIWGQGTMVSVSS
VL: QAVVTQPPSASGTLGQRVTISCSGSSSTIGSNYVYWYQQLPGTAPKLLIYRNNQRPSGVPDRFSGSKSGTSASLAISGLRSEDEADYYCAAWDDSLSGYVFGTGTQLTVL
B7: CoV2-32 (antibody, V domains shown)
VH: EVQLVESGGGLVQPGRSLRLSCAAPRFTFDDYAIHWVRQVPGKGLEWVSGSSWNSGTIGYAPSVKGRFTISRDNAKNSLFLQMNSLRVEDTALYYCAILPGDYNRVADVFDIWGQGTMVIVSS
VL: QAVVTQPPSVSGAPGQRVTISCTGSSSNIGAGYDVHWYQQLPGTAPKLLIYGNNNRPSGVPDRFSGSKSGTSASLAITGLQVEDEADYYCQSYDSSLSGYVFGTGTKVTVL
B8: CoV2-20 (antibody, V domains shown)
VH: QVQLVESGGDLVQPGRSLRLSCAASGFIFDDYAMHWVRQVPGKGPEWVSGVNRDSTYVGQADSVKGRFTISRDNAKKALFLQMDSLRVEDTALYYCVRGMTRVATDAFDFWGQGTMVTVSS
VL: AIQMTQSPSSLSASVGDRVTITCRASQSINGYLNWYQQKPGKAPKLLIYSASRLQSGVPSRFSGSGSGADYTLTISNLQVEDFATYYCQQSYSTPPVTFGQGTRLEIK

Legend:
S protein of SARS-CoV [1] = target: T1, S protein of SARS-CoV (SARS-CoV, UniProt P59594 14-1195); assay: ELISA, purified IgG1 on coated S protein
[2] = target: T2, sCoV2-RBD (Fc-tagged RBD of SARS-CoV-2 S protein) (SARS-CoV-2; human, UniProt P0DTC2 319-541); assay: ELISA titration on coated sCoV2-RBD
[3] = target: T3, sCoV-RBD (Fc-tagged RBD of SARS-CoV S protein) (SARS-CoV; human, UniProt P59594 306-527); assay: ELISA, purified IgG1 on coated RBD protein
[4] = target: T2, sCoV2-RBD (Fc-tagged RBD of SARS-CoV-2 …)
[5] = target: SARS-CoV-2 S protein on live SARS-CoV-2-mNG reporter virus (SARS-CoV-2, UniProt P0DTC2 14-1273); assay: cell-based or functional assay
[6] = target: T2, sCoV2-RBD (Fc-tagged RBD of SARS-CoV-2 …); assay: BLI (Octet) blocking of ACE2 binding to captured sCoV2-RBD
[7] = target: T2, sCoV2-RBD (Fc-tagged RBD of SARS-CoV-2 …); assay: ELISA titration on coated sCoV2-RBD; remark: listed apart in the source
[8] = target: T4, SARS-CoV-2 RBD protein (Sino Biological, Cat: 40592-V08B) (SARS-CoV-2, UniProt P0DTC2 319-541); assay: BLI (Octet), mAb on Protein A sensor
[9] = target: T4, SARS-CoV-2 RBD protein (Sino …)
[10] = target: T3, sCoV-RBD (Fc-tagged RBD of SARS-CoV S …); assay: phage ELISA, scFv on phage
[11] = target: T4, SARS-CoV-2 RBD protein (Sino …); remark: listed apart in the source
[12] = target: T3, sCoV-RBD (Fc-tagged RBD of SARS-CoV S …); assay: ELISA titration on coated sCoV-RBD
[13] = target: T2, sCoV2-RBD (Fc-tagged RBD of SARS-CoV-2 …); assay: ELISA titration on coated sCoV2-RBD; remark: listed apart in the source
S protein of SARS-CoV [14] = target: T1, S protein of SARS-CoV; assay: BLI (Octet), CoV2-20 against spike of SARS-CoV
[15] = target: T3, sCoV-RBD (Fc-tagged RBD of SARS-CoV S …); assay: BLI (Octet) blocking of ACE2 binding to sCoV-RBD

Row | Binder | binding result (S protein of SARS-CoV [1]) | EC50 [2] [nM] | binding result [3] | EC50 [4] [nM] | NC50 (neutralisation of reporter SARS-CoV-2, Vero E6 cells) [5] [µg/mL] | IC50 [6] [µg/mL] | Kd [8] [nM] | koff [8] [s⁻¹] | kon [8] [M⁻¹ s⁻¹] | Kd [9] [nM] | binding result [10] | other results
1 | B1 | no binding (tested: one concentration, not printed) | 4.05 | no binding (tested: one concentration, not printed) | 4.04 | 1.13 | 2.25 |  |  |  |  |  | 
2 | B2 |  | 0.6 |  |  |  | 2.97 | 4.97 | 0.000306 | 61600 |  |  | EC50 [7]: 0.59 nM
3 | B3 | no binding (tested: one concentration, not printed) | 0.83 |  | 0.83 | 5.2 | 9.17 | 10.8 | 0.000574 | 53300 | 10.8 | no binding | 
4 | B4 | no binding (tested: one concentration, not printed) | 2.41 |  | 2.41 | 1.93 | 6.03 |  |  |  | 11.4 | no binding | Kd [11]: 11.4 nM; koff [11]: 0.000467 s⁻¹; kon [11]: 41200 M⁻¹ s⁻¹
5 | B5 | no binding (tested: one concentration, not printed) | 10.8 | no binding (tested: one concentration, not printed) |  |  | 5.47 | 168 | 0.00137 | 8180 |  |  | 
6 | B6 | no binding (tested: one concentration, not printed) | 2.24 |  | 2.31 | 2.49 | 4.28 | 53.4 | 0.00101 | 18900 | 1.73 | no binding | Kd [11]: 1.73 nM; koff [11]: 5.78e-05 s⁻¹; kon [11]: 33300 M⁻¹ s⁻¹
7 | B7 | no binding (tested: one concentration, not printed) | 12.6 | no binding (tested: one concentration, not printed) |  |  | 10.4 | 1730 | 0.00158 | 915 |  |  | 
8 | B8 |  | 22 |  |  |  | 14.7 | 29.5 | 0.000805 | 27300 |  |  | EC50 [12]: 9.96 nM; EC50 [13]: 5.99 nM; Kd (S protein of SARS-CoV [14]): 24.4 nM; koff (S protein of SARS-CoV [14]): 0.000676 s⁻¹; kon (S protein of SARS-CoV [14]): 27700 M⁻¹ s⁻¹; IC50 [15]: 44.6 µg/mL
